Values of other authors, collected in patent US20100028328A1, “TOPICAL TREATMENT FOR DISEASES OF EYE SURFACE” (THERAKINE, LTD., priority 2006, published 2010).

Tests used:
[1] = test system: Herpetic Stromal Keratitis (HSK), Herpes simplex virus infection of the cornea; settings: treatment of HSK
[2] = test system: allogeneic corneal transplants; settings: topical treatment

Molecule | influx of cells of the innate and adaptive immune system into the cornea [1] | acceptance of allogeneic corneal transplants [2] | gene expression of chemokines associated with corneal graft rejection (RANTES, macrophage inflammatory protein-1beta) [2]
IL-1 ra: receptor antagonist to IL-1 | reduce the influx of cells of the innate and adaptive immune system into the cornea | – | –
TNFR-I: a TNF antagonist; topical soluble tumor necrosis factor receptor type I (protein, UniProt P19438 30-211, looked up, extracellular domain) extracellular domain: LVPHLGDREKRDSVCPQGKYIHPQNNSICCTKCHKGTYLYNDCPGPGQDTDCRECESGSFTASENHLRHCLSCSKCRKEMGQVEISSCTVDRDTVCGCRKNQYRHYWSENLFQCFNCSLCLNGTVHLSCQEKQNTVCTCHAGFFLRENECVSCSNCKKSLECTKLCLPQIENVKGTEDSGTT | – | promoted the acceptance of allogeneic corneal transplants | inhibited gene expression of 2 chemokines
